# Assay results from patent US12590158 (XIYUAN ANJIAN MEDICINE SHANGHAI, dated 2026).
# Substitutions are numbered along the chain they refer to.
# B1: humanized anti-TrkA antibody 42F5-11 (antibody, V domains shown)
# VH: QVQLVQSGAEVKKPGASVKVSCKSSGYTFTNYWMHWVRQAPGQGLEWIGEIYPNNGRVNYNEKFKNRATLTVDISISTAYMELSRLRSDDTAVYYCARSRYDPMEDWGQGTTVTVSS
# VL: EVVLTQSPATLSLSPGERATLSCSASSSVGYMHWYQQKPGQAPRRWIYDTSKLASGVPARFSGSGSGTDYTLTISSLEPEDAAVYFCQQWSSIPLTFGQGTRLEIK
# notes: VH grafted to human IgG4 heavy chain constant region, VL to human Kappa light chain constant region
# B2: humanized anti-TrkA antibody 42F5-14 (antibody, V domains shown)
# VH: B1 VH with I48M, N55Q, A68V, L70M
# VL: DVQLTQSPSSLSASVGDRVTITCSASSSVGYMHWYQQKPGKAPKRLIYDTSKLASGVPSRFSGSGSGTDYTLTISSLQPEDFATYFCQQWSSIPLTFGQGTRLEIK
# notes: 42F5-01 with NG55-56 of the VH mutated to QG55-56
# B3: humanized anti-TrkA antibody 42F5-08 (antibody, V domains shown)
# VH: B1 VH with A16S, I76T, R85S, D89E
# VL: B2 VL with D1Q, L46W
# notes: VH grafted to human IgG4 heavy chain constant region, VL to human Kappa light chain constant region; also called 43F5-08 [sic]
# B4: humanized anti-TrkA antibody 42F5-13 (antibody, V domains shown)
# VH: B1 VH with I48M, N55S, A68V, L70M
# VL: B2 VL
# notes: 42F5-01 with NG55-56 of the VH mutated to SG55-56
# B5: control antibody BXhVH5VL1 (antibody, V domains shown)
# VH: EVKLLESGGGLVQPGGSLRLSCAASGFTFSTYTMSWVRQTPGKRLEWVAYISKGGGSTYYPDTVKGRFTISRDNSKNTLYLQMNSLRAEDTAVYYCARGAMYGNDFFYPMDYWGQGTTVTVSS
# VL: EIVLTQSPATLSLSPGERATLSCSASSSVSYMHWYQQKPGQAPRLLIYTTSNLASGIPARFSGSGSGTDFTLTISSLEPEDFAVYYCHQWSSYPWTFGQGTKLEIK
# B6: humanized anti-TrkA antibody 42F5-03 (antibody, V domains shown)
# VH: B1 VH
# VL: B2 VL with L46W
# notes: as for B1
# B7: humanized anti-TrkA antibody 42F5-04 (antibody, V domains shown)
# VH: B1 VH with A16S, I76T, R85S, D89E
# VL: B2 VL with L46W
# notes: as for B1
# Target: T1, human TrkC expressed on CHO cells (TrkC/CHO, ThermoFisher K1515) (human, UniProt Q16288 32-839)
# T1 construct: whole, on cells
# T1 sequence (Q16288 32-839): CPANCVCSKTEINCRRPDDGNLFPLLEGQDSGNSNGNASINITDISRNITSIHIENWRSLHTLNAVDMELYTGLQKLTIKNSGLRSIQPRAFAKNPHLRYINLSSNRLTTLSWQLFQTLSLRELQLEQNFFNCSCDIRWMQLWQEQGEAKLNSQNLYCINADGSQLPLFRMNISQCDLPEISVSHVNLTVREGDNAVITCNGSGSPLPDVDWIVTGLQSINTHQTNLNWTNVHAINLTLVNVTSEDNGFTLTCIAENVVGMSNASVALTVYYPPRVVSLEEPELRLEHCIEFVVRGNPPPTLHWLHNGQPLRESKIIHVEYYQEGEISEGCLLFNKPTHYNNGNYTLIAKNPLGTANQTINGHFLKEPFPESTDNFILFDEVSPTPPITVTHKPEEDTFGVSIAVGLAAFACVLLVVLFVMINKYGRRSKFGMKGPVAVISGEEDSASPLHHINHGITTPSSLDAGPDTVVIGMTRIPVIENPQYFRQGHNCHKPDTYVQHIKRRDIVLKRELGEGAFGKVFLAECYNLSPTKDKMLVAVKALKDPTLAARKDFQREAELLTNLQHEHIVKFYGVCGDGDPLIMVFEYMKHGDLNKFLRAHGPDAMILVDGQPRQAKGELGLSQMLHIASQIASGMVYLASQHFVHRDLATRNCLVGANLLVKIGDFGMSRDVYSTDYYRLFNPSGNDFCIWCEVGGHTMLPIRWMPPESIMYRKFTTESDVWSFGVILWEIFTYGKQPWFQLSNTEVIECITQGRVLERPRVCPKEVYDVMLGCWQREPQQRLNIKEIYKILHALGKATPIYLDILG
# Assay: flow cytometry on TrkC/CHO cells, FITC goat anti-human Fc
# Description: (§1) CHO-K1 was used as a negative control. The binding of the humanized antibodies to the four cell lines was detected by flow cytometry.
# (§2) The cells were cultured according to the manufacturer's instruction. The cells were harvested in the logarithmic growth phase, re-suspended in flow buffer (PBS+2% FBS, pH 7.4), and added into 96-well plate, 10^5 cells per well (50 µl). 50 µl of 100 µg/mL humanized anti-TrkA antibody was added, incubated at room temperature for 60 min, and centrifuged at 1200 rpm. The supernatant was discarded and the cells were washed 3 times. FITC-labeled goat anti-human Fc antibody (Abeam, ab97224) was diluted to 5 µg/mL with flow buffer and used to re-suspend the cells, incubated at room temperature for 30 min in the dark, centrifuged, and the supernatant was discarded. After washing 3 times, the cells were re-suspended with 7AAD solution (Biolegend, 420403), incubated for 10 min at room temperature, and the binding of the antibody was detected with a flow cytometer (BioRad, ZE5).
row,binding result,Binder
1,no binding,B1
2,no binding,B2
3,no binding,B3
4,no binding,B4

# Target: T2, full-length human TrkA expressed on cells (human, UniProt P04629 33-796)
# T2 construct: whole, on cells; also called TrkA/CHO; TrkA/Ba/F3
# T2 sequence (P04629 33-796): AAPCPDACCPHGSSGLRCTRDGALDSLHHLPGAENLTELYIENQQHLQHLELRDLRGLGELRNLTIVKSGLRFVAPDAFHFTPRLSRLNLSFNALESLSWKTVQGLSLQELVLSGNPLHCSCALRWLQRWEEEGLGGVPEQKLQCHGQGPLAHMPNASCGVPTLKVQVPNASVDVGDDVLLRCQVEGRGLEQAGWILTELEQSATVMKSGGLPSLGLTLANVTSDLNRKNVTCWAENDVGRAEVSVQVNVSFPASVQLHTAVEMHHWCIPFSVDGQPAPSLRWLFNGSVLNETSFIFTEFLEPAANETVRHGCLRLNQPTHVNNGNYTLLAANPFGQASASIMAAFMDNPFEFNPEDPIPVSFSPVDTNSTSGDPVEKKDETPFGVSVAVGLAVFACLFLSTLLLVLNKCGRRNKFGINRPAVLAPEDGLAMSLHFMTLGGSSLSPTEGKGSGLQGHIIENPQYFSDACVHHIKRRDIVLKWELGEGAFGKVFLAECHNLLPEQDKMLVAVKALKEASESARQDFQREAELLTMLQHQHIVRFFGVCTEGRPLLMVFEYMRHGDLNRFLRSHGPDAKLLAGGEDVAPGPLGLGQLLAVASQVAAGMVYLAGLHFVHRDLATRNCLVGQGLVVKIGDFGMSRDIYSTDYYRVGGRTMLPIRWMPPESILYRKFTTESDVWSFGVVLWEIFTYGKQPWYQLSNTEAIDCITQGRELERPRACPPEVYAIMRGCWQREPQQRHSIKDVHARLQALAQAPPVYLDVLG
# Assay: flow cytometry titration on TrkA/CHO cells
# Description: as §2
# The binding curve of the humanized anti-TrkA antibodies and TrkA/CHO cells was detected with the same flow cytometry.
row,EC50 [nM],Binder
1,0.513,B1
2,0.547,B2
3,0.535,B3
4,0.518,B4

# Target: full-length human TrkA expressed on cells (human) (UniProt P04629)
# Sequence (P04629 33-796): as above
# Assay: cell-based or functional assay
IC50 of inhibiting NGF-induced TF-1 cell proliferation [nM],IC50 of inhibiting NGF-induced TrkA/Ba/F3 cell proliferation [nM],inhibition rate for TrkA/Ba/F3 cell proliferation at 40 µg/mL (266.67 nM) [%],inhibition rate on NGF-induced TF-1 cell proliferation at 40 µg/mL (266.67 nM) [%],Binder
> 200,> 200,< 50,< 40,B5

# Target: T2, full-length human TrkA expressed on …
# Assay: cell-based or functional assay
row,IC50 of inhibiting NGF-induced TrkA/Ba/F3 cell proliferation [nM],Binder
1,2.91,B6
2,2.81,B1
3,3.69,B7
4,3.27,B2
5,3.54,B3
6,3.31,B4

# Target: T3, human TrkB expressed on CHO cells (TrkB/CHO, ThermoFisher K1491) (human, UniProt Q16620 32-822)
# T3 construct: whole, on cells
# T3 sequence (Q16620 32-822): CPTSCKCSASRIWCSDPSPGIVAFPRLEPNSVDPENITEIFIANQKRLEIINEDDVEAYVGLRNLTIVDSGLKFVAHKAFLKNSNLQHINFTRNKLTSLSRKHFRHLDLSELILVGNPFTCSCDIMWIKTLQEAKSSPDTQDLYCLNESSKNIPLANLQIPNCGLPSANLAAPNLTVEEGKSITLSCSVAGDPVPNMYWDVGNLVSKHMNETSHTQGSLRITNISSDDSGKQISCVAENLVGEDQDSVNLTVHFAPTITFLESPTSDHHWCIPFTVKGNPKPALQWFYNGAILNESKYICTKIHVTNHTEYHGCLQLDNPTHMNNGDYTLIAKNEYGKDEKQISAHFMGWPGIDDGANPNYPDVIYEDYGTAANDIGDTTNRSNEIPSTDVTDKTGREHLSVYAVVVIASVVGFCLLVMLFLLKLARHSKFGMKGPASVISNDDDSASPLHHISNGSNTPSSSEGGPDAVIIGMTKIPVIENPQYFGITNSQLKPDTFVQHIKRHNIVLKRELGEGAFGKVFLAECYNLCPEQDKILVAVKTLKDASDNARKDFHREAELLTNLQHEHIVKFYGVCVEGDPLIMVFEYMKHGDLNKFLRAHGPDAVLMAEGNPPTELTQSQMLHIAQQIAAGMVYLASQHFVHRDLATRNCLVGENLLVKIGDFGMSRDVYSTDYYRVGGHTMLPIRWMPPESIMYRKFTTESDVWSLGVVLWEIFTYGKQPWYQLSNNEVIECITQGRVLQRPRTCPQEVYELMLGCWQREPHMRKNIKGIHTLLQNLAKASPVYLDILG
# Assay: flow cytometry on TrkB/CHO cells
# Description: as §1, §2
row,binding result,Binder
1,no binding (tested: 50 µl of 100 µg/mL),B6
2,no binding (tested: 50 µl of 100 µg/mL),B7

# Target: T4, TrkA extracellular region (33-417) protein comprising human Fc (ACROBiosystems TRA-H5259) (human, UniProt P04629 33-417)
# T4 construct: range 33-417; Bought fusion protein; also called human TrkA (33-417); human TrkA extracellular region
# T4 sequence (P04629 33-417 limits assumed): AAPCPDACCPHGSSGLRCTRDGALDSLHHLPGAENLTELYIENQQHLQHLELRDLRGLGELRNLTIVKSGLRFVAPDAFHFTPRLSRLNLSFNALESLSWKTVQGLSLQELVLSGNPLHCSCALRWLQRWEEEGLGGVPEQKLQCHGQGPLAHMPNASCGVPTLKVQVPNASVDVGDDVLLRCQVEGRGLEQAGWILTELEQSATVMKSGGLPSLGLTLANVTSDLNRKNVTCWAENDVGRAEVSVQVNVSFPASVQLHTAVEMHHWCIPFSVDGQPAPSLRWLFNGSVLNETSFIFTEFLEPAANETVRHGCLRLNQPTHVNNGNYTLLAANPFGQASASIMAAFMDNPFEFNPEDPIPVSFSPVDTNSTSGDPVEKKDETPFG
# Assay: competition ELISA, coated TrkA (33-417)-hFc, antibody titrated, competitor biotin-labeled human NGF
# Description: Each well of a 96-well microtiter plate was coated with 50 ng of TrkA extracellular region (33-417) protein fused to human Fc, washed three times and blocked with 3% BSA for 1 hour. […] Each well was added with 100 μl and incubated at room temperature for 30 minutes. […] Streptavidin-labeled horseradish peroxidase (Streptavidin-HRP, Biolegend, 405210) was added and incubated for 0.5 hours. After washing three times, TMB was added to the plate, and the absorbance at 450 nm was read by a microplate reader after the color development was terminated.
row,IC50 [nM],Binder
1,> 100,B5

# Target: T1, human TrkC expressed on CHO cells …
# Assay: flow cytometry on TrkC/CHO cells
# Description: as §1, §2
row,binding result,Binder
1,no binding (tested: 50 µl of 100 µg/mL),B6
2,no binding (tested: 50 µl of 100 µg/mL),B7

# Target: T5, human TrkA extracellular region (33-417) protein containing mouse Fc (human, UniProt P04629 33-417)
# T5 construct: range 33-417
# T5 sequence (P04629 33-417 limits assumed): as above
# Assay: ELISA, coated human TrkA (33-417)-mouse Fc, anti-human IgG-HRP
# Description: Each well of a 96-well microtiter plate was coated with 50 ng of human TrkA, washed and blocked, then added with serially diluted humanized antibodies, and incubated for 1 hour at room temperature. After washing three times, horseradish peroxidase-conjugated goat anti-human IgG antibody (ThermoFisher, A18817) was added and reacted at room temperature for 1 hour. After washing three time, tetramethylbenzidine (TMB, Biolegend) was added for color development. 1M HCl was used to terminate the color development, and the absorbance values were read at 450 nm with a microplate reader.
row,EC50 [nM],Binder
1,0.056,B6
2,0.05,B1
3,0.07,B7
4,0.071,B2
5,0.055,B3
6,0.087,B4

# Target: T3, human TrkB expressed on CHO cells …
# Assay: flow cytometry on TrkB/CHO cells, FITC goat anti-human Fc
# Description: as §1, §2
row,binding result,Binder
1,no binding,B1
2,no binding,B2
3,no binding,B3
4,no binding,B4

# Target: T2, full-length human TrkA expressed on …
# Assay: cell-based or functional assay
# Remark: another data set of the same source
row,IC50 of inhibiting NGF-induced TF-1 cell proliferation [nM],Binder
1,1.43,B6
2,1.4,B1
3,1.69,B7
4,1.94,B2
5,1.65,B3
6,0.867,B4
